Assay results as given in patent JP2019218309A (dated 2019).
No end group written: not given here.

What was measured:
[1] = target: T1, 測定用抗原(1): PEG化GIP(1−15) (PEGylated N-terminal 15 amino acids of active GIP) (also: PEGylated, site not given here); assay: ELISA, immobilised PEGylated peptide, hybridoma culture supernatant
T1 construct: also called GIP(1-15)
T1 peptide: YAEGTFISDYSIAMD

[2] = target: T2, 測定用抗原(2): PEG化GIP(3−15) (PEGylated N-terminal 13 amino acids of inactive GIP) (also: PEGylated, site not given here); assay: as above
T2 construct: also called GIP(3-15)
T2 peptide: EGTFISDYSIAMD

GIP(3−42) (inactive GIP) = target: T3, GIP(3−42) (inactive GIP); assay: sandwich ELISA: anti-total GIP monoclonal antibody as capture, biotinylated m1 at 1 ug/mL as detection
T3 construct: also called 非活性型GIP; 不活性型のGIP(3−42)
T3 peptide: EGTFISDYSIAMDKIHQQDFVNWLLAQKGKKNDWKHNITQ

GIP(1−42) (active GIP) = target: T4, GIP(1−42) (active GIP); assay: sandwich ELISA: anti-total GIP monoclonal antibody as capture, biotinylated m1 at 1 ug/mL as detection, GIP at 8.2-2000 pg/mL
T4 construct: a Human (total) GIP ELISA kit was used; also called 活性型GIP; GIP(1-42)
T4 peptide: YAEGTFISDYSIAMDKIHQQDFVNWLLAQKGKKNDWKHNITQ

- binding result [1]: binds
- binding result [2]: no binding
- binding result (GIP(3−42) (inactive GIP)): no binding
- binding result (GIP(1−42) (active GIP)): binds
B1: ハイブリドーマ9B9H5−B9株から産生されるモノクローナル抗体 (anti-active GIP monoclonal antibody of hybridoma 9B9H5-B9) (antibody, V domains shown)
VH: QVQLQQPGAELVKPGASVKLSCKASGYTFTSFWMHWVIQRPGQGLEWIGEMNPSDGRTHFNEKFKTKATLTIDTSSNTAYMELNSLTSEDSAVYYCARRMEDWGQGTLVTVSA
VL: DIKMTQSPSSMYASLGERVTITCKASQDINSYLGWFQQKPGKSPKTLIYGANRLVDGVPSRFSGSGSGQDYSLTISSLEYDDMGIYYCLQYDEFPLTFGAGTKLELKR
notes: Mouse (BALB/c) hybridoma monoclonal antibody, purified on Protein A; also called 抗活性型GIP抗体; 抗活性型GIPモノクローナル抗体
